Experimental data taken from patent publication US20250011428A1.

B1: CD3_2_YTE (antibody, human IgG1, lambda)
heavy: EVQLVESGGGLVQPGGSLKLSCAASGFTFNTYAMNWVRQASGKGLEWVGRIRSKYNNYATYYADSVKDRFTISRDDSKSTLYLQMNSLKTEDTAVYYCVRHGNFGNSYVSWFAYWGQGTLVTVSSASTKGPSVFPLAPSSKSTSGGTAALGCLVKDYFPEPVTVSWNSGALTSGVHTFPAVLQSSGLYSLSSVVTVPSSSLGTQTYICNVNHKPSNTKVDKRVEPKSCDKTHTCPPCPAPELCCHPSVFLFPPKPKDTLYITREPEVTCVVVGLRHEDPEVKFNWYVDGVEVHNAKTKPREEQYCGCYRVVSVLTVLHQDWLNGKEYKCKVSNKALPAPIEKTISKAKGQPREPQVYTLPPSRDELTKNQVSLTCLVKGFYPSDIAVEWESNGQPENNYKTTPPVLDSDGSFFLYSKLTVDKSRWQQGNVFSCSVMHEALHNHYTQKSLSLSPGK
light: QAVVTQEPSLTVSPGGTVTLTCRSSTGAVTTSNYANWVQQKPGQAPRGLIGGTNKRAPWTPARFSGSLLGDKAALTLSGAQPEDEAEYFCALWYSNLWVFGGGTKLTVLGQPKAAPSVTLFPPSSEELQANKATLVCLISDFYPGAVTVAWKADSSPVKAGVETTTPSKQSNNKYAASSYLSLTPEQWKSHRSYSCQVTHEGSTVEKTVAPTECS
B2: CD3_4_YTE (antibody, human IgG1, lambda)
heavy: EVQLVESGGGLVQPGGSLKLSCAASGFTFNTYAMNWVRQASGKGLEWVGRIRSKYNNYATYYADSVKDRFTISRDDSKSTLYLQMNSLKTEDTAVYYCVRHGNFGNSYVSWFAYWGQGTLVTVSSASTKGPSVFPLAPSSKSTSGGTAALGCLVKDYFPEPVTVSWNSGALTSGVHTFPAVLQSSGLYSLSSVVTVPSSSLGTQTYICNVNHKPSNTKVDKRVEPKSCDKTHTCPPCPAPELCCHPSVFLFPPKPKDTLYITREPEVTCVVVDVSHEDPEVKFNWYVDGVEVHNAKTKPREEQYCGCYRVVSVLTVLHQDWLNGKEYKCKVSNKALPAPIEKTISKAKGQPREPQVYTLPPSRDELTKNQVSLTCLVKGFYPSDIAVEWESNGQPENNYKTTPPVLDSDGSFFLYSKLTVDKSRWQQGNVFSCSVMHEALHNHYTQKSLSLSPGK
light: QAVVTQEPSLTVSPGGTVTLTCRSSTGAVTTSNYANWVQQKPGQAPRGLIGGTNKRAPWTPARFSGSLLGDKAALTLSGAQPEDEAEYFCALWYSNLWVFGGGTKLTVLGQPKAAPSVTLFPPSSEELQANKATLVCLISDFYPGAVTVAWKADSSPVKAGVETTTPSKQSNNKYAASSYLSLTPEQWKSHRSYSCQVTHEGSTVEKTVAPTECS
B3: IgG4_CD3_WT_YTE (antibody)
heavy: EVQLVESGGGLVQPGGSLKLSCAASGFTFNTYAMNWVRQASGKGLEWVGRIRSKYNNYATYYADSVKDRFTISRDDSKSTLYLQMNSLKTEDTAVYYCVRHGNFGNSYVSWFAYWGQGTLVTVSSASTKGPSVFPLAPCSRSTSESTAALGCLVKDYFPEPVTVSWNSGALTSGVHTFPAVLQSSGLYSLSSVVTVPSSSLGTKTYTCNVDHKPSNTKVDKRVESKYGPPCPSCPAPEFLGGPSVFLFPPKPKDTLYITREPEVTCVVVDVSQEDPEVQFNWYVDGVEVHNAKTKPREEQFNSTYRVVSVLTVLHQDWLNGKEYKCKVSNKGLPSSIEKTISKAKGQPREPQVYTLPPSQEEMTKNQVSLTCLVKGFYPSDIAVEWESNGQPENNYKTTPPVLDSDGSFFLYSRLTVDKSRWQEGNVFSCSVMHEALHNHYTQKSLSLSL
light: QAVVTQEPSLTVSPGGTVTLTCRSSTGAVTTSNYANWVQQKPGQAPRGLIGGTNKRAPWTPARFSGSLLGDKAALTLSGAQPEDEAEYFCALWYSNLWVFGGGTKLTVLGQPKAAPSVTLFPPSSEELQANKATLVCLISDFYPGAVTVAWKADSSPVKAGVETTTPSKQSNNKYAASSYLSLTPEQWKSHRSYSCQVTHEGSTVEKTVAPTECS
B4: CD3_3_YTE (antibody, human IgG1, lambda)
heavy: EVQLVESGGGLVQPGGSLKLSCAASGFTFNTYAMNWVRQASGKGLEWVGRIRSKYNNYATYYADSVKDRFTISRDDSKSTLYLQMNSLKTEDTAVYYCVRHGNFGNSYVSWFAYWGQGTLVTVSSASTKGPSVFPLAPSSKSTSGGTAALGCLVKDYFPEPVTVSWNSGALTSGVHTFPAVLQSSGLYSLSSVVTVPSSSLGTQTYICNVNHKPSNTKVDKRVEPKSCDKTHTCPPCPAPELCCHPSVFLFPPKPKDTLYITREPEVTCVVTGLRDEDPEVKFNWYVDGVEVHNAKTKPREEQYCGCYRVVSVLTVLHQDWLNGKEYKCKVSNKALPAPIEKTISKAKGQPREPQVYTLPPSRDELTKNQVSLTCLVKGFYPSDIAVEWESNGQPENNYKTTPPVLDSDGSFFLYSKLTVDKSRWQQGNVFSCSVMHEALHNHYTQKSLSLSPGK
light: QAVVTQEPSLTVSPGGTVTLTCRSSTGAVTTSNYANWVQQKPGQAPRGLIGGTNKRAPWTPARFSGSLLGDKAALTLSGAQPEDEAEYFCALWYSNLWVFGGGTKLTVLGQPKAAPSVTLFPPSSEELQANKATLVCLISDFYPGAVTVAWKADSSPVKAGVETTTPSKQSNNKYAASSYLSLTPEQWKSHRSYSCQVTHEGSTVEKTVAPTECS
B5: CD3_1_YTE (antibody, human IgG1, lambda)
heavy: EVQLVESGGGLVQPGGSLKLSCAASGFTFNTYAMNWVRQASGKGLEWVGRIRSKYNNYATYYADSVKDRFTISRDDSKSTLYLQMNSLKTEDTAVYYCVRHGNFGNSYVSWFAYWGQGTLVTVSSASTKGPSVFPLAPSSKSTSGGTAALGCLVKDYFPEPVTVSWNSGALTSGVHTFPAVLQSSGLYSLSSVVTVPSSSLGTQTYICNVNHKPSNTKVDKRVEPKSCDKTHTCPPCPAPELCCHPRVFLFPPKPKDTLYITREPEVTCVVTGLRDEDPEVKFNWYVDGVEVHNAKTKPREEQYCGCYSVVSVLTVLHQDWLNGKEYKCKVSNKALPAPIEKTISKAKGQPREPQVYTLPPSRDELTKNQVSLTCLVKGFYPSDIAVEWESNGQPENNYKTTPPVLDSDGSFFLYSKLTVDKSRWQQGNVFSCSVMHEALHNHYTQKSLSLSPGK
light: QAVVTQEPSLTVSPGGTVTLTCRSSTGAVTTSNYANWVQQKPGQAPRGLIGGTNKRAPWTPARFSGSLLGDKAALTLSGAQPEDEAEYFCALWYSNLWVFGGGTKLTVLGQPKAAPSVTLFPPSSEELQANKATLVCLISDFYPGAVTVAWKADSSPVKAGVETTTPSKQSNNKYAASSYLSLTPEQWKSHRSYSCQVTHEGSTVEKTVAPTECS
B6: CD3_5 (antibody, human IgG1, lambda)
heavy: EVQLVESGGGLVQPGGSLKLSCAASGFTFNTYAMNWVRQASGKGLEWVGRIRSKYNNYATYYADSVKDRFTISRDDSKSTLYLQMNSLKTEDTAVYYCVRHGNFGNSYVSWFAYWGQGTLVTVSSASTKGPSVFPLAPSSKSTSGGTAALGCLVKDYFPEPVTVSWNSGALTSGVHTFPAVLQSSGLYSLSSVVTVPSSSLGTQTYICNVNHKPSNTKVDKRVEPKSCDKTHTCPPCPAPELCCGPSVFLFPPKPKDTLMISRTPEVTCVVVDVSHEDPEVKFNWYVDGVEVHNAKTKPREEQYCSCYRVVSVLTVLHQDWLNGKEYKCKVSNKALPAPIEKTISKAKGQPREPQVYTLPPSRDELTKNQVSLTCLVKGFYPSDIAVEWESNGQPENNYKTTPPVLDSDGSFFLYSKLTVDKSRWQQGNVFSCSVMHEALHNHYTQKSLSLSPGK
light: QAVVTQEPSLTVSPGGTVTLTCRSSTGAVTTSNYANWVQQKPGQAPRGLIGGTNKRAPWTPARFSGSLLGDKAALTLSGAQPEDEAEYFCALWYSNLWVFGGGTKLTVLGQPKAAPSVTLFPPSSEELQANKATLVCLISDFYPGAVTVAWKADSSPVKAGVETTTPSKQSNNKYAASSYLSLTPEQWKSHRSYSCQVTHEGSTVEKTVAPTECS
B7: CD3_1 (antibody, human IgG1, lambda)
heavy: EVQLVESGGGLVQPGGSLKLSCAASGFTFNTYAMNWVRQASGKGLEWVGRIRSKYNNYATYYADSVKDRFTISRDDSKSTLYLQMNSLKTEDTAVYYCVRHGNFGNSYVSWFAYWGQGTLVTVSSASTKGPSVFPLAPSSKSTSGGTAALGCLVKDYFPEPVTVSWNSGALTSGVHTFPAVLQSSGLYSLSSVVTVPSSSLGTQTYICNVNHKPSNTKVDKRVEPKSCDKTHTCPPCPAPELCCHPRVFLFPPKPKDTLMISRTPEVTCVVTGLRDEDPEVKFNWYVDGVEVHNAKTKPREEQYCGCYSVVSVLTVLHQDWLNGKEYKCKVSNKALPAPIEKTISKAKGQPREPQVYTLPPSRDELTKNQVSLTCLVKGFYPSDIAVEWESNGQPENNYKTTPPVLDSDGSFFLYSKLTVDKSRWQQGNVFSCSVMHEALHNHYTQKSLSLSPGK
light: QAVVTQEPSLTVSPGGTVTLTCRSSTGAVTTSNYANWVQQKPGQAPRGLIGGTNKRAPWTPARFSGSLLGDKAALTLSGAQPEDEAEYFCALWYSNLWVFGGGTKLTVLGQPKAAPSVTLFPPSSEELQANKATLVCLISDFYPGAVTVAWKADSSPVKAGVETTTPSKQSNNKYAASSYLSLTPEQWKSHRSYSCQVTHEGSTVEKTVAPTECS
B8: CD3_5_YTE (antibody, human IgG1, lambda)
heavy: EVQLVESGGGLVQPGGSLKLSCAASGFTFNTYAMNWVRQASGKGLEWVGRIRSKYNNYATYYADSVKDRFTISRDDSKSTLYLQMNSLKTEDTAVYYCVRHGNFGNSYVSWFAYWGQGTLVTVSSASTKGPSVFPLAPSSKSTSGGTAALGCLVKDYFPEPVTVSWNSGALTSGVHTFPAVLQSSGLYSLSSVVTVPSSSLGTQTYICNVNHKPSNTKVDKRVEPKSCDKTHTCPPCPAPELCCGPSVFLFPPKPKDTLYITREPEVTCVVVDVSHEDPEVKFNWYVDGVEVHNAKTKPREEQYCSCYRVVSVLTVLHQDWLNGKEYKCKVSNKALPAPIEKTISKAKGQPREPQVYTLPPSRDELTKNQVSLTCLVKGFYPSDIAVEWESNGQPENNYKTTPPVLDSDGSFFLYSKLTVDKSRWQQGNVFSCSVMHEALHNHYTQKSLSLSPGK
light: QAVVTQEPSLTVSPGGTVTLTCRSSTGAVTTSNYANWVQQKPGQAPRGLIGGTNKRAPWTPARFSGSLLGDKAALTLSGAQPEDEAEYFCALWYSNLWVFGGGTKLTVLGQPKAAPSVTLFPPSSEELQANKATLVCLISDFYPGAVTVAWKADSSPVKAGVETTTPSKQSNNKYAASSYLSLTPEQWKSHRSYSCQVTHEGSTVEKTVAPTECS
B9: CD3_DANAPA_YTE (antibody, human IgG1, lambda, N297A)
heavy: EVQLVESGGGLVQPGGSLKLSCAASGFTFNTYAMNWVRQASGKGLEWVGRIRSKYNNYATYYADSVKDRFTISRDDSKSTLYLQMNSLKTEDTAVYYCVRHGNFGNSYVSWFAYWGQGTLVTVSSASTKGPSVFPLAPSSKSTSGGTAALGCLVKDYFPEPVTVSWNSGALTSGVHTFPAVLQSSGLYSLSSVVTVPSSSLGTQTYICNVNHKPSNTKVDKRVEPKSCDKTHTCPPCPAPELLGGPSVFLFPPKPKDTLYITREPEVTCVVVAVSHEDPEVKFNWYVDGVEVHNAKTKPREEQYASTYRVVSVLTVLHQDWLNGKEYKCKVSNKALAAPIEKTISKAKGQPREPQVYTLPPSRDELTKNQVSLTCLVKGFYPSDIAVEWESNGQPENNYKTTPPVLDSDGSFFLYSKLTVDKSRWQQGNVFSCSVMHEALHNHYTQKSLSLSPGK
light: QAVVTQEPSLTVSPGGTVTLTCRSSTGAVTTSNYANWVQQKPGQAPRGLIGGTNKRAPWTPARFSGSLLGDKAALTLSGAQPEDEAEYFCALWYSNLWVFGGGTKLTVLGQPKAAPSVTLFPPSSEELQANKATLVCLISDFYPGAVTVAWKADSSPVKAGVETTTPSKQSNNKYAASSYLSLTPEQWKSHRSYSCQVTHEGSTVEKTVAPTECS

The binders below were run against Gamma receptors FcγRI, FcγRII, and FcγRIII expressed on THP-1 cells (assay: cell-based or functional assay).

Going from B1 to B2, the Maximum response in RGA assay (LU) rises from 11900 LU to 16500 LU.

Compared with B3, B4 is lower in Maximum response in RGA assay (LU): 31800 LU for the first, 13100 LU for the second.

Compared with B5, B6 is higher in Maximum response in RGA assay (LU): 12000 LU for the first, 19900 LU for the second.

First: B7
Second: B8
The Maximum response in RGA assay (LU) of the first is higher: 24700 LU for the first, 13100 LU for the second.

B9 gave a Maximum response in RGA assay (LU) of 12300 LU.
